Results published in the supplement of paper PMC5998384.

Key:
HeLa Kyoto [1] = assay: thermal stability score vs G1/S (z-score of summed log2 fold changes over temperatures); higher = more thermally stable than in G1/S
HeLa Kyoto [2] = assay: solubility change mitosis vs G1/S (difference of NP-40 vs SDS log2 ratios) (log2 ratio difference); higher = more soluble in mitosis
HeLa Kyoto [3] = assay: melting temperature (median over replicates), in situ; higher = more thermally stable
HeLa Kyoto [4] = assay: solubility in G1/S (NP-40 vs SDS abundance) (log2 ratio); higher = more soluble; conditions: cell cycle stage: G1/S
[5] = cell cycle stage: early G1 (4.5 h after nocodazole release)
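Wherever melting temperature (median over replicates), in situ is given: HeLa Kyoto cells synchronized by double thymidine or nocodazole block, proteins quantified by TMT10plex mass spectrometry, three independent biological replicates.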
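Wherever solubility change mitosis vs G1/S (difference of NP-40 vs SDS log2 ratios) is given: synchronized HeLa Kyoto cells (double thymidine block for G1/S, nocodazole release for mitosis), protein amounts in NP-40 versus SDS lysates quantified by mass spectrometry, three biological replicates.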
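Wherever solubility in G1/S (NP-40 vs SDS abundance) is given: HeLa Kyoto cells arrested at G1/S by double thymidine block, proteins quantified by TMT10plex mass spectrometry in mild NP-40 versus SDS extracts, three biological replicates.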
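Wherever thermal stability score vs G1/S (z-score of summed log2 fold changes over temperatures) is given: synchronized HeLa Kyoto cells, proteins quantified by TMT10plex mass spectrometry, three biological replicates, mitosis taken 0.5 h after nocodazole release, G1/S directly after double thymidine block.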

Sequence	thermal stability score (HeLa Kyoto [1]; [5])	thermal stability score (HeLa Kyoto [1]; cell cycle stage: mitosis)	solubility change mitosis (log2) (HeLa Kyoto [2])	melting temperature (HeLa Kyoto [3]; cell cycle stage: G1/S)	melting temperature (HeLa Kyoto [3]; cell cycle stage: mitosis)	solubility in G1/S (log2) (HeLa Kyoto [4])
MSSKGSVVLAYSGGLDTSCILVWLKEQGYDVIAYLANIGQKEDFEEARKKALKLGAKKVFIEDVSREFVEEFIWPAIQSSALYEDRYLLGTSLARPCIARKQVEIAQREGAKYVSHGATGKGNDQVRFELSCYSLAPQIKVIAPWRMPEFYNRFKGRNDLMEYAKQHGIPIPVTPKNPWSMDENLMHISYEAGILENPKNQAPPGLYTKTQDPAKAPNTPDILEIEFKKGVPVKVTNVKDGTTHQTSLELFMYLNEVAGKHGVGRIDIVENRFIGMKSRGIYETPAGTILYHAHLDIEAFTMDREVRKIKQGLGLKFAELVYTGFWHSPECEFVRHCIAKSQERVEGKVQVSVLKGQVYILGRESPLSLYNEELVSMNVQGDYEPTDATGFININSLRLKEYHRLQSKVTAK [ASS1]	-0.511	-0.833	-0.0958	54.3 °C	54.1 °C	0.145
MSSLIRRVISTAKAPGAIGPYSQAVLVDRTIYISGQIGMDPSSGQLVSGGVAEEAKQALKNMGEILKAAGCDFTNVVKTTVLLADINDFNTVNEIYKQYFKSNFPARAAYQVAALPKGSRIEIEAVAIQGPLTTASL [HRSP12]	-1.03	-1.85	0.158	55.4 °C	55 °C	0.213
MSSPASTPSRRGSRRGRATPAQTPRSEDARSSPSQRRRGEDSTSTGELQPMPTSPGVDLQSPAAQDVLFSSPPQMHSSAIPLDFDVSSPLTYGTPSSRVEGTPRSGVRGTPVRQRPDLGSAQKGLQVDLQSDGAAAEDIVASEQSLGQKLVIWGTDVNVAACKENFQRFLQRFIDPLAKEEENVGIDITEPLYMQRLGEINVIGEPFLNVNCEHIKSFDKNLYRQLISYPQEVIPTFDMAVNEIFFDRYPDSILEHQIQVRPFNALKTKNMRNLNPEDIDQLITISGMVIRTSQLIPEMQEAFFQCQVCAHTTRVEMDRGRIAEPSVCGRCHTTHSMALIHNRSLFSDKQMIKLQESPEDMPAGQTPHTVILFAHNDLVDKVQPGDRVNVTGIYRAVPIRVNPRVSNVKSVYKTHIDVIHYRKTDAKRLHGLDEEAEQKLFSEKRVELLKELSRKPDIYERLASALAPSIYEHEDIKKGILLQLFGGTRKDFSHTGRGKFRAEINILLCGDPGTSKSQLLQYVYNLVPRGQYTSGKGSSAVGLTAYVMKDPETRQLVLQTGALVLSDNGICCIDEFDKMNESTRSVLHEVMEQQTLSIAKAGIICQLNARTSVLAAANPIESQWNPKKTTIENIQLPHTLLSRFDLIFLLLDPQDEAYDRRLAHHLVALYYQSEEQAEEELLDMAVLKDYIAYAHSTIMPRLSEEASQALIEAYVDMRKIGSSRGMVSAYPRQLESLIRLAEAHAKVRLSNKVEAIDVEEAKRLHREALKQSATDPRTGIVDISILTTGMSATSRKRKEELAEALKKLILSKGKTPALKYQQLFEDIRGQSDIAITKDMFEEALRALADDDFLTVTGKTVRLL [MCM4]	0.944	0.88	-0.0425	50.6 °C	50.4 °C	0.157
MSSRKQGSQPRGQQSAEEENFKKPTRSNMQRSKMRGASSGKKTAGPQQKNLEPALPGRWGGRSAENPPSGSVRKTRKNKQKTPGNGDGGSTSEAPQPPRKKRARADPTVESEEAFKNRMEVKVKIPEELKPWLVEDWDLVTRQKQLFQLPAKKNVDAILEEYANCKKSQGNVDNKEYAVNEVVAGIKEYFNVMLGTQLLYKFERPQYAEILLAHPDAPMSQVYGAPHLLRLFVRIGAMLAYTPLDEKSLALLLGYLHDFLKYLAKNSASLFTASDYKVASAEYHRKAL [MORF4L2]	0.948	0.257	0.484	52.9 °C	52.1 °C	0.0399
MSSSGLNSEKVAALIQKLNSDPQFVLAQNVGTTHDLLDICLKRATVQRAQHVFQHAVPQEGKPITNQKSSGRCWIFSCLNVMRLPFMKKLNIEEFEFSQSYLFFWDKVERCYFFLSAFVDTAQRKEPEDGRLVQFLLMNPANDGGQWDMLVNIVEKYGVIPKKCFPESYTTEATRRMNDILNHKMREFCIRLRNLVHSGATKGEISATQDVMMEEIFRVVCICLGNPPETFTWEYRDKDKNYQKIGPITPLEFYREHVKPLFNMEDKICLVNDPRPQHKYNKLYTVEYLSNMVGGRKTLYNNQPIDFLKKMVAASIKDGEAVWFGCDVGKHFNSKLGLSDMNLYDHELVFGVSLKNMNKAERLTFGESLMTHAMTFTAVSEKDDQDGAFTKWRVENSWGEDHGHKGYLCMTDEWFSEYVYEVVVDRKHVPEEVLAVLEQEPIILPAWDPMGALAE [BLMH]	-1.55	-0.29	-0.251	58.1 °C	59 °C	-0.128
MSSSNVEVFIPVSQGNTNGFPATASNDLKAFTEGAVLSFHNICYRVKLKSGFLPCRKPVEKEILSNINGIMKPGLNAILGPTGGGKSSLLDVLAARKDPSGLSGDVLINGAPRPANFKCNSGYVVQDDVVMGTLTVRENLQFSAALRLATTMTNHEKNERINRVIQELGLDKVADSKVGTQFIRGVSGGERKRTSIGMELITDPSILFLDEPTTGLDSSTANAVLLLLKRMSKQGRTIIFSIHQPRYSIFKLFDSLTLLASGRLMFHGPAQEALGYFESAGYHCEAYNNPADFFLDIINGDSTAVALNREEDFKATEIIEPSKQDKPLIEKLAEIYVNSSFYKETKAELHQLSGGEKKKKITVFKEISYTTSFCHQLRWVSKRSFKNLLGNPQASIAQIIVTVVLGLVIGAIYFGLKNDSTGIQNRAGVLFFLTTNQCFSSVSAVELFVVEKKLFIHEYISGYYRVSSYFLGKLLSDLLPMRMLPSIIFTCIVYFMLGLKPKADAFFVMMFTLMMVAYSASSMALAIAAGQSVVSVATLLMTICFVFMMIFSGLLVNLTTIASWLSWLQYFSIPRYGFTALQHNEFLGQNFCPGLNATGNNPCNYATCTGEEYLVKQGIDLSPWGLWKNHVALACMIVIFLTIAYLKLLFLKKYS [ABCG2]	-1.15	-0.412	-0.0838	60.7 °C	60.5 °C	-0.574
MSSSPLSKKRRVSGPDPKPGSNCSPAQSVLSEVPSVPTNGMAKNGSEADIDEGLYSRQLYVLGHEAMKRLQTSSVLVSGLRGLGVEIAKNIILGGVKAVTLHDQGTAQWADLSSQFYLREEDIGKNRAEVSQPRLAELNSYVPVTAYTGPLVEDFLSGFQVVVLTNTPLEDQLRVGEFCHNRGIKLVVADTRGLFGQLFCDFGEEMILTDSNGEQPLSAMVSMVTKDNPGVVTCLDEARHGFESGDFVSFSEVQGMVELNGNQPMEIKVLGPYTFSICDTSNFSDYIRGGIVSQVKVPKKISFKSLVASLAEPDFVVTDFAKFSRPAQLHIGFQALHQFCAQHGRPPRPRNEEDAAELVALAQAVNARALPAVQQNNLDEDLIRKLAYVAAGDLAPINAFIGGLAAQEVMKACSGKFMPIMQWLYFDALECLPEDKEVLTEDKCLQRQNRYDGQVAVFGSDLQEKLGKQKYFLVGAGAIGCELLKNFAMIGLGCGEGGEIIVTDMDTIEKSNLNRQFLFRPWDVTKLKSDTAAAAVRQMNPHIRVTSHQNRVGPDTERIYDDDFFQNLDGVANALDNVDARMYMDRRCVYYRKPLLESGTLGTKGNVQVVIPFLTESYSSSQDPPEKSIPICTLKNFPNAIEHTLQWARDEFEGLFKQPAENVNQYLTDPKFVERTLRLAGTQPLEVLEAVQRSLVLQRPQTWADCVTWACHHWHTQYSNNIRQLLHNFPPDQLTSSGAPFWSGPKRCPHPLTFDVNNPLHLDYVMAAANLFAQTYGLTGSQDRAAVATFLQSVQVPEFTPKSGVKIHVSDQELQSANASVDDSRLEELKATLPSPDKLPGFKMYPIDFEKDDDSNFHMDFIVAASNLRAENYDIPSADRHKSKLIAGKIIPAIATTTAAVVGLVCLELYKVVQGHRQLDSYKNGFLNLALPFFGFSEPLAAPRHQYYNQEWTLWDRFEVQGLQPNGEEMTLKQFLDYFKTEHKLEITMLSQGVSMLYSFFMPAAKLKERLDQPMTEIVSRVSKRKLGRHVRALVLELCCNDESGEDVEVPYVRYTIR [UBA1]	2.94	5.38	-0.171	49.5 °C	50 °C	0.11
MSSTLAKIAEIEAEMARTQKNKATAHHLGLLKARLAKLRRELITPKGGGGGGPGEGFDVAKTGDARIGFVGFPSVGKSTLLSNLAGVYSEVAAYEFTTLTTVPGVIRYKGAKIQLLDLPGIIEGAKDGKGRGRQVIAVARTCNLILIVLDVLKPLGHKKIIENELEGFGIRLNSKPPNIGFKKKDKGGINLTATCPQSELDAETVKSILAEYKIHNADVTLRSDATADDLIDVVEGNRVYIPCIYVLNKIDQISIEELDIIYKVPHCVPISAHHRWNFDDLLEKIWDYLKLVRIYTKPKGQLPDYTSPVVLPYSRTTVEDFCMKIHKNLIKEFKYALVWGLSVKHNPQKVGKDHTLEDEDVIQIVKK [DRG1]	-0.58	-2.04	-0.0219	53.8 °C	53.4 °C	0.118
MSSTQFNKGPSYGLSAEVKNRLLSKYDPQKEAELRTWIEGLTGLSIGPDFQKGLKDGTILCTLMNKLQPGSVPKINRSMQNWHQLENLSNFIKAMVSYGMNPVDLFEANDLFESGNMTQVQVSLLALAGKAKTKGLQSGVDIGVKYSEKQERNFDDATMKAGQCVIGLQMGTNKCASQSGMTAYGTRRHLYDPKNHILPPMDHSTISLQMGTNKCASQVGMTAPGTRRHIYDTKLGTDKCDNSSMSLQMGYTQGANQSGQVFGLGRQIYDPKYCPQGTVADGAPSGTGDCPDPGEVPEYPPYYQEEAGY [CNN2]	1.28	1.97	-0.0021	48.8 °C	50.3 °C	0.456
MSTADALDDENTFKILVATDIHLGFMEKDAVRGNDTFVTLDEILRLAQENEVDFILLGGDLFHENKPSRKTLHTCLELLRKYCMGDRPVQFEILSDQSVNFGFSKFPWVNYQDGNLNISIPVFSIHGNHDDPTGADALCALDILSCAGFVNHFGRSMSVEKIDISPVLLQKGSTKIALYGLGSIPDERLYRMFVNKKVTMLRPKEDENSWFNLFVIHQNRSKHGSTNFIPEQFLDDFIDLVIWGHEHECKIAPTKNEQQLFYISQPGSSVVTSLSPGEAVKKHVGLLRIKGRKMNMHKIPLHTVRQFFMEDIVLANHPDIFNPDNPKVTQAIQSFCLEKIEEMLENAERERLGNSHQPEKPLVRLRVDYSGGFEPFSVLRFSQKFVDRVANPKDIIHFFRHREQKEKTGEEINFGKLITKPSEGTTLRVEDLVKQYFQTAEKNVQLSLLTERGMGEAVQEFVDKEEKDAIEELVKYQLEKTQRFLKERHIDALEDKIDEEVRRFRETRQKNTNEEDDEVREAMTRARALRSQSEESASAFSADDLMSIDLAEQMANDSDDSISAATNKGRGRGRGRRGGRGQNSASRGGSQRGRADTGLETSTRSRNSKTAVSASRNMSIIDAFKSTRQQPSRNVTTKNYSEVIEVDESDVEEDIFPTTSKTDQRWSSTSSSKIMSQSQVSKGVDFESSEDDDDDPFMNTSSLRRNRR [MRE11A]	-0.294	-0.527	-0.164	51.6 °C	51.2 °C	-0.0431
MSTARTENPVIMGLSSQNGQLRGPVKPTGGPGGGGTQTQQQMNQLKNTNTINNGTQQQAQSMTTTIKPGDDWKKTLKLPPKDLRIKTSDVTSTKGNEFEDYCLKRELLMGIFEMGWEKPSPIQEESIPIALSGRDILARAKNGTGKSGAYLIPLLERLDLKKDNIQAMVIVPTRELALQVSQICIQVSKHMGGAKVMATTGGTNLRDDIMRLDDTVHVVIATPGRILDLIKKGVAKVDHVQMIVLDEADKLLSQDFVQIMEDIILTLPKNRQILLYSATFPLSVQKFMNSHLQKPYEINLMEELTLKGVTQYYAYVTERQKVHCLNTLFSRLQINQSIIFCNSSQRVELLAKKISQLGYSCFYIHAKMRQEHRNRVFHDFRNGLCRNLVCTDLFTRGIDIQAVNVVINFDFPKLAETYLHRIGRSGRFGHLGLAINLITYDDRFNLKSIEEQLGTEIKPIPSNIDKSLYVAEYHSEPVEDEKP [DDX6]	0.486	-0.288	0.0947	51.5 °C	51 °C	-0.136
